Experimental data reported in PMC4633281.

Assays:
[1] = biological target: reconstituted TAM (TamA loop-His6 with purified TamB) in a supported membrane (E. coli) (UniProt P0ADE4); assay: magnetic contrast neutron reflectometry
[2] = biological target: TamA with loop-His6 sequence (E. coli) (UniProt P0ADE4); assay: magnetic contrast neutron reflectometry
[3] = biological target: TamA with loop-His6 sequence (E. coli) (UniProt P0ADE4); assay: quartz crystal microbalance with dissipation

Substance | volume fraction of Ag43 in the membrane layer [1] [%] | surface excess of Ag43, fold over that with the complete TAM [2] [fold] | volume fraction of Ag43 in the membrane layer [2] [%] | decrease in frequency (QCM-D) [3] [Hz] | frequency response (QCM-D) [3] [Hz]
Ag43, urea-denatured, purified (from UniProt P39180 53-1039) (natural protein) | 11 | 3 | 45 | – | –
TamB, soluble, purified from the periplasm (domain or fragment) | – | – | – | 95 | 30
